B1: THAP1; numbered along this chain (parent)
chain: MVQSCSAYGCKNRYDKDKPVSFHKFPLTRPSLCKEWEAAVRRKNFKPTKYSSICSEHFTPDCFKRECNNKLLKENAVPTIFLCTEPHDKKEDLLEPQEQLPPPPLPPPVSQVDAAIGLLMPPLQTPVNLSVFCDHNYTVEDTMHQRKRIHQLEQQVEKLRKKLKTAQQRCRRQERQLEKLKEVVHFQKEKDDVSERGYVILPNDYFEIVEVPA

Variants of: B1
Test: THAP1 transcriptional activity (GFP+/GFP- enrichment relative to wild-type constructs) (ratio to WT); higher = more THAP1 activity (PSMB5 reporter activation)
Conditions: with PSMB5 promoter-GFP reporter
Procedure: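 Deep mutational scan of human THAP1. Site-saturation single amino acid variant library (residues 2-213) was expressed by lentivirus at MOI ~0.3 in THAP1-knockout HEK-293T cells carrying an endogenous PSMB5 promoter-GFP knock-in reporter. Five days post-transduction, BFP+ cells were FACS-sorted into GFP dim and GFP bright populations and variants were counted by Illumina sequencing. Activity is the GFP-bright/GFP-dim read fold change, mean of 2 replicates, divided by the mean fold change of wild-type (synonymous) constructs in the same screen pool; WT = 1.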

THAP1 transcriptional activity of substitutions, site by site:
A39: D 0.172; C 0.272; E 0.168
L32: N 0.173; K 0.267; W 0.161; M 0.357; G 0.156; D 0.155; C 0.199; F 0.14; S 0.21; T 0.295; Y 0.135; A 0.175; V 0.794; P 0.113; R 0.31; E 0.135; Q 0.378; I 0.906; H 0.17
W36: T 0.143; R 0.107; M 0.182; Y 0.178; N 0.101; K 0.123; I 0.0405; Q 0.18; F 0.221; E 0.13; V 0.138; P 0.167; S 0.197; A 0.0783; G 0.0718; C 0.248; L 0.338; H 0.187; D 0.159
K24: I 0.0809; E 0.138; L 0.156; Q 0.0996; A 0.122; V 0.121; H 0.345; W 0.156; T 0.109; S 0.088; M 0.118; Y 0.11; F 0.1; R 1.73; C 0.146; P 0.125; N 0.0904; D 0.116; G 0.13
F25: A 0.123; P 0.105; C 0.125; S 0.0861; K 0.0509; Y 0.203; M 0.131; E 0.148; H 0.115; Q 0.0935; L 0.117; G 0.182; I 0.145; R 0.106; N 0.108; V 0.0907; D 0.123; T 0.0714; W 0.156
E37: H 0.454; K 0.292; D 0.182; W 0.0974; Y 0.252; N 0.451; S 0.558; M 0.792; V 0.484; P 0.245; F 0.177; I 0.988; C 0.963; R 0.157; A 0.542; Q 0.337; T 0.905; G 0.195; L 1.16
S21: P 0.0702; G 0.164; K 0.0427; N 0.152; V 0.0819; W 0.115; L 0.0984; I 0.128; Q 0.176; M 0.182; R 0.131; Y 0.109; T 0.174; H 0.0793
T28: K 1.42; R 1.03; W 0.188; L 0.612; D 0.202; E 0.172; Y 0.137; G 0.843; V 0.231; H 0.391; N 0.889; Q 0.651; C 0.495; I 0.198; A 0.664; P 0.103; M 0.3; F 0.194; S 3.39
L27: F 0.503; S 0.183; Y 0.304; W 0.263; R 0.23; M 0.41; H 0.0857; K 0.111; T 0.31; A 0.142; C 0.14; D 0.111; I 0.729; N 0.0759; V 0.488; P 0.103; Q 0.235; E 0.0928; G 0.0873
C33: E 0.0749; D 0.11; T 0.142; P 0.117; I 0.159; M 0.188; Y 0.162; W 0.11; V 0.301; K 0.22; R 0.15; A 0.499; F 0.17; S 0.242; Q 0.193; N 0.177; H 0.173; L 0.708
P26: V 0.127; H 0.0688; Q 0.222; W 0.0853; D 0.0858; N 0.147; A 0.13; G 0.0891; F 0.0724; C 0.106; L 0.104; S 0.0994; Y 0.208; K 0.155; T 0.0945; I 0.178; R 0.098; E 0.157
P30: I 0.278; N 0.33; E 0.399; Q 0.583; D 0.254; Y 0.21; L 0.261; A 0.476; C 0.123; F 0.129; M 0.245; V 0.418; R 0.396; G 0.282; W 0.0759; H 0.384; S 0.33; T 0.349; K 0.428
R29: M 0.162; P 0.135; S 0.134; H 0.211; Y 0.118; T 0.12; C 0.137; A 0.122; D 0.187; I 0.134; L 0.0833; G 0.131; E 0.127; F 0.154; W 0.129; Q 0.36; V 0.177; N 0.536; K 0.357
H23: M 0.0825; E 0.123; N 0.0799; K 0.125; A 0.116; T 0.0534; W 0.0807; Q 0.0718; D 0.117; C 0.0806; V 0.0823; S 0.127; R 0.084; G 0.088; F 0.0843; I 0.0266; L 0.0839; Y 0.179; P 0.161
F22: M 0.0987; D 0.0567; H 0.12; Y 0.288; C 0.0658; W 0.125; R 0.0771; N 0.0832; T 0.126; K 0.0858; Q 0.121; I 0.178; S 0.0454; P 0.132; L 0.117; E 0.0853; A 0.115; G 0.0652; V 0.115
A38: K 1.34; W 0.234; F 0.511; T 0.773; I 0.735; D 1; E 0.41; H 0.797; P 0.09; C 0.377; S 0.593; G 0.417; R 1.14; Q 0.891; M 0.788; N 1.08; V 0.684
E35: A 0.556; W 0.203; H 0.328; T 0.473; P 0.243; R 0.909; V 0.479; K 0.751; S 0.44; M 0.787; Y 0.266; G 0.183; D 0.688; F 0.223; Q 1.42; I 0.451; C 0.317; L 1.18
S31: G 1.17; Y 0.535; A 1.03; H 0.565; P 0.204; M 0.6; C 0.206; Q 0.998; L 1.21; N 0.574; D 1.43; E 1.31; I 0.728; T 1.19; F 0.363; R 1.01; V 0.895; K 1.13
K34: C 0.284; A 0.749; V 0.529; G 0.217; R 0.841; S 0.646; H 0.459; P 0.0748; W 0.233; Q 0.971; L 0.613; Y 0.316; D 0.207; N 0.391; M 0.397; T 0.337; I 0.528; F 0.281; E 0.59
